The target of one test is T1, mIL22 (Mus musculus, UniProt Q9JJY9).
T1 sequence (Q9JJY9 34-179): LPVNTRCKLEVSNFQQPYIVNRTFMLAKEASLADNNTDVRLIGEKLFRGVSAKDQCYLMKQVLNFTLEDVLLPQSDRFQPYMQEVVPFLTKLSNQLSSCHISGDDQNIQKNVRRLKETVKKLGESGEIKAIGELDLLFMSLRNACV
Kind of test: Affinity ELISA mIL22. The class given is binding. The text has this:
The CPE™ library was screened for antibodies that were able to bind to both human IL-22 and mouse IL-22 with high affinity. Specifically, the CPE™ variants were screened by affinity ELISA for mouse IL-22 (mIL-22) binding affinity. The hum10 was included in every affinity ELISA plate as a control. The CPE™ variants with increased binding affinity to mIL-22 compared to hum10 were scored as primary CPE™ hits. The primary CPE™ hits were re-arrayed, re-transfected, and screened again by affinity ELISA and also by titration ELISA using both mIL-22 and human IL-22 (hIL-22) for antibodies that bind to both mIL-22 and hIL-22. These 10 mutant antibodies were selected based on ELISA data and sequence diversity, ability to scaled up and purified.
On the technique in general: In an ELISA, binding on a coated surface is turned into a signal by an enzyme label.

A further test concerns the target T2, mouse IL-22 (mIL-22) (Mus musculus, UniProt Q9JJY9).
T2 sequence (Q9JJY9 34-179): T1 sequence (Q9JJY9 34-179)
Nature of the test: Inhibition of mIL-22 induced Stat3 phosphorylation in HepG2 cells. The class given is cell-based. Conditions: mAb 6.7 nM. The method, then:
One of the immediate functions of IL-22 is inducing phosphorylation of Stat3, a protein in the signaling pathway of IL-22. The 10 antibodies of Table 1 were tested in a cell-based assay for blocking IL-22-dependent phosphorylation of Stat3 through human or mouse IL-22 in HepG2 cells. Antibody hum10 and mutant CPE-LC-E049K were used as controls. Four concentrations of each of the antibodies were used: 0.11 μg/mL, 0.33 μg/mL, 1 μg/mL, and 3 μg/mL.
30,000 human HepG2 cells were seeded in 96 well plates and serum starved overnight. Three-fold dilutions of anti-IL-22 antibodies and control hum10 antibody at concentrations of 0.11 μg/mL, 0.33 μg/mL, 1 μg/mL, and 3 μg/mL were incubated with 200 ng/ml of hIL-22 or mIL-22 at 37° C. for one hour then added to the serum starved human HepG2 cells. The HepG2 cells were incubated with the antibody-IL-22 mixture at 37° C. for 20 minutes. After incubation, HepG2 cells were washed with PBS and lysed. Half of the cell lysate was used to determine the level of phosphorylated Stat3 using Cell Signaling kit #7300 following the vendor's protocol and the other half of the cell lysate was used to determine the level of total Stat3 by Western blot analysis using a Santa Cruz rabbit polyclonal antibody (Sc-7179) against human Stat3.

B1: hum10: parent humanized monoclonal antibody against human IL-22; light chain variable region SEQ ID NO: 19, heavy chain variable region SEQ ID NO:20 (antibody, V domains shown)
VH: QVQLVQSGAEVKKPGASVKVSCKASGYIFTSYWIHWIRQPPGKGLEWIGRIYPGTGNTYYNEKFKGRVTISADKSISTAYLQWSSLKASDTAMYYCARSYDSSCAYWGQGTLVTVSS
VL: AIQLTQSPSSLSASVGDRVTITCSASSSVSYMHWYLQKPGQSPQLLIYETSKLASGVPSRFSGSGSGTDFTFTISSLEAEDAATYYCQQWSSNPYITFGQGTKVEIKR
modifications: Synthetic sequence hum10-HC; Synthetic sequence hum10-LC
With B1, the “Affinity ELISA mIL22 50% max signal mAb” value with mIL22 (first mIL22 line of Table 3) and with mIL22 (second mIL22 line of Table 3) was “no binding” throughout. In addition, the “STAT3 Phosphorylation; mIL22 % inhibition” value with mouse IL-22 (mIL-22) is on record as “no inhibition”.

The values above are taken from US11834472B2, “Anti-IL-22 antibodies, antibody fragments, their immunoconjugates and uses thereof” (BioAtla, Inc., priority 2018, dated 2023).
